The values below come from patent publication US20110190477A1 (published 2011).

For assay [1], the target named is T1, human C5a receptor (UniProt P21730 1-350).
T1 chain: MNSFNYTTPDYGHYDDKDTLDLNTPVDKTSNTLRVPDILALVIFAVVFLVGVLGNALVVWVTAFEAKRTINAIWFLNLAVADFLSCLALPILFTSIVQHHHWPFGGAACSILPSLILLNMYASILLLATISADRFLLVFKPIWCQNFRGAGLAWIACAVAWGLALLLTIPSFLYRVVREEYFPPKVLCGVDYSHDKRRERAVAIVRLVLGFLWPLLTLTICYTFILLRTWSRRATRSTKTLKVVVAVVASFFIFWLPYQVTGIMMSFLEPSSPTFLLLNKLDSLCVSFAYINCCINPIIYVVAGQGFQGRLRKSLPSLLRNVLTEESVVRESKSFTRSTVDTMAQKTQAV
In words: saturation binding to human neutrophils (flow cytometry, MFI); 4 C.

The target of assay [2] is T1, human C5a receptor. The description is as above.

B1: humanized anti-C5aR antibody hAb-J (antibody)
light: DVVMTQSPLSLPVTLGEPASISCRSSQSLVHSNGNTYLHWYLQKPGQSPQLLIYKVSNRFSGVPDRFSGSGSGTDFTLKISRVEAEDVGVYFCSQSTLVPLTFGQGTKLEIKTVAAPSVFIFPPSDEQLKSGTASVVCLLNNFYPREAKVQWKVDNALQSGNSQESVTEQDSKDSTYSLSSTLTLSKADYEKHKVYACEVTHQGLSSPVTKSFNRGEC
heavy: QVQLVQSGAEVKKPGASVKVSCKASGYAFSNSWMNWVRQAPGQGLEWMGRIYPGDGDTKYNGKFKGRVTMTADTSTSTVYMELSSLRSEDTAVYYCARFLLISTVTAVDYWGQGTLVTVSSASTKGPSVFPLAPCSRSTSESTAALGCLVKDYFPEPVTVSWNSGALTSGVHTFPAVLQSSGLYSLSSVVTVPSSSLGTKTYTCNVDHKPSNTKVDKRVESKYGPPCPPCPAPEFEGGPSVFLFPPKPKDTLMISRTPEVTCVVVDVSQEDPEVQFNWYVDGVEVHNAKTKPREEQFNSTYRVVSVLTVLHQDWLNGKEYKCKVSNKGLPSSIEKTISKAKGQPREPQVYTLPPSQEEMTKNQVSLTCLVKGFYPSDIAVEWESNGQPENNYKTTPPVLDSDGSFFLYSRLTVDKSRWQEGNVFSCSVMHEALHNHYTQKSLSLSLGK
As to B1, in the assay with human C5a receptor [1], the equilibrium dissociation constant (Kd) came to 25.4 nM. This molecule yielded a 50% effective concentration (EC50) with human C5a receptor [2] of 20.1 nM.

B2: humanized anti-C5aR antibody hAb-Q (antibody)
light: DVVMTQSPLSLPVTLGEPASISCRSSQSLVHSNGNTYLHWYLQKPGQSPQLLIYKVSNRFSGVPDRFSGSGSGTDFTLKISRVEAEDVGVYFCSQSTLVPLTFGQGTKLEIKRTVAAPSVFIFPPSDEQLKSGTASVVCLLNNFYPREAKVQWKVDNALQSGNSQESVTEQDSKDSTYSLSSTLTLSKADYEKHKVYACEVTHQGLSSPVTKSFNRGEC
heavy: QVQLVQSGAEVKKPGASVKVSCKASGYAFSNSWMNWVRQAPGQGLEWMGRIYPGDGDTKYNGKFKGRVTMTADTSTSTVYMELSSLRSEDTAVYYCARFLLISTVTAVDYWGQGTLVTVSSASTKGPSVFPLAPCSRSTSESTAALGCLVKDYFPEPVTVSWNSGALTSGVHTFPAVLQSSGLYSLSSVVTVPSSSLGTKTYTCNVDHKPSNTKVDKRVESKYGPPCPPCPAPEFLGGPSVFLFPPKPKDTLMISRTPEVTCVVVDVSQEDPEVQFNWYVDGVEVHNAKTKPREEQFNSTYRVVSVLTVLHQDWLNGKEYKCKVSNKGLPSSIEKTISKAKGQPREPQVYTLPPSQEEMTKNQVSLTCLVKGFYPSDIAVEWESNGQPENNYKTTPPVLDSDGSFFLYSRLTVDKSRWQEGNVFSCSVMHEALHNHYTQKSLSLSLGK
In turn, B2 displayed an equilibrium dissociation constant (Kd) with human C5a receptor [1] of 22.6 nM. Moreover, in the assay with human C5a receptor [2], the EC50 is 21.6 nM.

B3: mouse anti-C5aR monoclonal antibody 7F3 (antibody, V domains shown)
VH: QVQLQQSGPELVKPGASVKISCKASGYAFSNSWMNWVKQRPGKGLEWIGRIYPGDGDTKYNGKFKGKATLTADKSSSTAYMQLSSLTSEDSAVYFCARFLLISTVTAVDYWGQGTTLTVSS
VL: DVVMTQSPLSLPVSLGNQASISCRSSQSLVHSNGNTYLHWYLQKPGQSPKLLIYKVSNRFSGVPDRFSGSGSGTDFSLKISRVEAEDLGVYFCSQSTLVPLTFGAGTKLELK
For B3, binding in the assay with human C5a receptor [1] was put at a Kd of 9.2 nM. For the same molecule, it took 8.51 nM to reach a half-maximal effect in the assay with human C5a receptor [2] (EC50).
